Source: the supplement of paper PMC9170038

System: K4 kissing-loop RNA reporter
Test: apparent KD of K4 kissing-loop reporter; higher = weaker reporter binding
Details: Eterna round: R107; input ligand: none
Protocol: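 RNA-MaP round R107: designed RNA switches with theophylline, tryptophan, arginine or FMN aptamers are transcribed on-chip within common flanks. They are titrated with a labelled K4 kissing-loop RNA reporter in RNA-MaP buffer (100 mM Tris pH 7.5, 80 mM KCl, 4 mM MgCl2), without ligand or with the indicated ligand. Median apparent KD per design.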
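Note: bound reporter read as fluorescence of individual clusters on recovered sequencing chips by microscopy, with normalized cluster intensities fitted with a binding model.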

Sequence	apparent KD of K4 kissing-loop reporter
GGAUAGGACAGAGGAUAUGGUAGUGAUGUUACCAAACUGGUUACUCUUGUCAGAAAACUGGCAUCUCUAGAAGGCUGUCCUAUCG [KL-XFMN-B9]	149 nM
ACUGGAAACAUCACGUAUCCAAAACUGGAUACCAGCUCGGAAACGAGCCCUUGGCAGCCAGAACUUGCAGUGAUGUUGCAAGUAA [Design9]	384 nM
UGUACCGAGGCAGGAUAUGUCGUCGAAAGACGAAAUGGAGUGAUGUUCCUUAAACUGCGAAAGCAGACAGAAGGGCCUUGGUACU [FmnBS 29 G10+C76]	175 nM
CACCCUGGACAAGGAUAUAUCAUGCGCCAAGGGCAGUGAUGUUGCCACAGGCUUGGGUCCAGUUCGAUAGAAGGUGUCUGGUAUU [theeternabot_sameState_KL_FMN_B_4]	244 nM
GGCACGGGCUCGGCCGCCACUCCCGCGGGUCGUAAGGUCCGCUACUGAGUGAUGUUCGGUUGGAGGAGGACCGGGAGCCCGUGCC [#2 Exclusion - Tryptophan B Attempt #20 (HarryS)]	143 nM
GCCAGAGCGCGAAGGAGCGCCGUGACAGGUUGCUGCCGUGGGCAGUGAUGUUGCUCAGUCUGGCAGGUAGGUCGCGUGCUCUGGC	205 nM
GGGAUGUAGUGAUGUUAUAUUGGAUGUAGACGAGGACCGGUACGGCCGCCACUCGUGAUGGCUGCUAGCACGUUUCGAUGUUUGC [ExTryptoA.Cs]	424 nM
UUAGAGAUCUCAGGAUAUCAGUGAUGUUGUGAUCCAGAUCUGAGAUAGAAUUCUAUCUCAGAUCAAUGAGAAGGGAGAUCUCAUU [AK4.3 Exc FMN B]	1490 nM
UAAUUUAUAACUUUUAUAUAAUAAUCAGAUACCAGUGAUUAAUGUCACCCUUGGCAGCUGUAUAGAGUGAUGUUCUAAUGCUUAA [JR_SSTheophyA_Sub023]	147 nM
GCACGAGUGAUGUUCGUUGGCAUGCAUUCCGAGGAUAUGGGAUUAGCCAGAAGGCGGAAUCGGUCUUCGAGUGAUGUUCGAAGAU [Same State FMN A GF 13]	113 nM
ACCAUCAAAGAUGGCCAGGACUCCGCUGAUACCAGAGUGAAAACACUCCCUUGGCAGCAGGUGAGUGAUGUUCACAAGUCCUGGA [Omel KL Theo A SS B v5]	1860 nM
UUUAUAGUGACGGCCGCCACUAUAUUAAUGUUUAGGUUAGAGUGAUGUUUUGAUUAAUAUUUUUAUAGGACCGGGUUAUAUGUUU [ggbvmullin]	632 nM
UGGGAUGUUAAAGGAUAUAGAAAGUGAUAUUAGAAAGUGAGUGAUGUUGAUGUAGGUGAUGAUAUGUUAGAAGGUUAACAAAACG [abcde]	334 nM
AUUGUAUACUGAAGGAGCGAGUAGUGGAAACAUAAACUCAUUGCGAGUGAUGUUCGCAGUACUCAGGUAGGUCGCAGUAAUGGUA [Exclusion Arginine B Gf 9]	528 nM
AAUAUAUAGUGAAGGAGCGCGUAUAGCAGUGAUGUUGCUUACUUAUUAUUAUAUUUUUUGACGCAGGUAGGUCGCACUAUAUAUA [JR_ExcArginiB_Sub021]	268 nM
GAUCGAUGUCAGGAUACCAGCGGAAUCGUCGGAGACUCGAGUGGAGUGAUGUUCCCAGCACGCCCUUGGCAGCCUUGUUUAAGAU [theeternabot_sameState_KL_Theo_B_19]	318 nM
GCUAGUGCCCGCUCGAAAGAGCGUGUGUGUAAGGAUAUCUAGUAAUAGAGAAGGUACGGAGUGAUGUUCCCACACGGGCACUAGC	800 nM
UAGGUGCCGAACCAGUGAUGUUGGAGUCAUCGAGGACCGGUACGGCCGCCACUCGGCAGCGCCGGCGCGAUUAAUUGCGGAGACA [theeternabot_sameState_KL_Trp_A_7]	596 nM
UGUACCGAGUCAGGAUAUGGCGUCGAAAGACGAAUCUUAGUGAUGUUAAGGAUCUGCGAAAGCAGUCCAGAAGGGACUUGGUACU [FmnBS 26 U37+A49]	495 nM
GAUCUGAACGAAAGUUCGGAUCAGUCCGAUACCAGUAUGGAUUCAUACCCUUGGCAGCGGUUAUCUGCUAUGGAGUGAUGUUCCU [Theophylline A K4 12]	410 nM
CGACCGGUAGCGGAUACCAGCCUUUGAGUGAUGUUCGAGUUGAGUUUCCGCGCGUCGAAAGGCCCUUGGCAGCCGAUACGCCUUC [theeternabot_exclusion_KL_Theo_B_14]	207 nM
UGUUAUGUAUCAGGAUAUUAGUGAUGUUUGUUUAUGUUAGUGAUGUUGAUAUUUGUUUUAUGUAUUUAAGAAGGGAUUGUGAUGU [xexxmullin]	55.4 nM

Same assay, conditions: Eterna round: R107; input ligand: theophylline 20 uM

Sequence	apparent KD of K4 kissing-loop reporter
UGUGUUUACCUGACUCAGUGAUGUUGAGAAGGAGCGUGCGAAAGCACAGGUAGGUCGCUCAACCUAAAUUCAGGUGAGCACUAAA [#SwitchBubble 10 #K4Early]	334 nM
AUCACAGUGAUGUUGUGAUAUACUUCAGAUACCAGACUAGUGCUAGUCCCUUGGCAGCUGAACUCAGCAGCACCACUAGCACUCG [Theo A Ex t6a]	144 nM
GUAGCACUUGAUAGUGAUGUUAGCAAGGGCAAGGAUAUCAUCUCAAUGAGAAGGUGUCCUUGCUAACAGCUACGGGAAUAUCCCA [Omei KL FMN A Exc D v5]	579 nM
GGCAGAGCGCGAAGGAGCGCCCUGACAGGUUGCUGCCGUGGGCAGUGAUGUUGCUCAGUCCGGCAGGUAGGUCGCGUGCUCUGCC	116 nM
CGAACACCCUCGGCCGCCACUAGCCGUAGCCUGCGCUUGCGGAGUGAUGUUCUGAAGCAGGAUGUUAGGACCGGGAGCUACAUCC [theeternabot_sameState_KL_Trp_B_33]	428 nM
AUCUUGCAUUCGGCCGCCACUAUCGUGCAGUGAUGUUGCGCGAGUGACGCGUCCCGCAGUGCAGGUAGGACCGGGAAUGAUACCC [Erlazaar]	112 nM
UACAUAUAAUUAUUUCUACAUUUAUUUAGUCAGGAUAUCGAUUAAACGAGAAGGGACAAUAUCAAGUGAUGUUUGAUAAUUCAAA [JR_ExcFMNA_Sub010]	112 nM
UCGAAGGAUGGAAGGAGCGCUCGUCAGUCCUGCGAGUGAUGUUCGUGGGUAAAUAGUCGCGAGCAGGUAGGUCGCCAUCUUGAGA [Lageso]	152 nM
AGUACGCCCAGUGAUACCAGCCCGCCUGGGCAGUGAUGUUGCUCGGGAAAUAAAAUAGAGGGCCCUUGGCAGCACACGGUAGUCC [Cees]	107 nM
AGGUUUUGAUUAGGAUAUGCACUGAGGACGAGAAUAUAGUGAUGUUAUAUAAUAGGAAUUAGUAGAGUAGAAGGGAUUGAGGUUU [SSFMNB.V]	194 nM
AAGAGUAAACUCUAACUCCUUAAGUCCGAAGGAGCGACUCAAUGGUCAGGUAGGUCGCGGACAAUCCUAGUGAUGUUAGGAUCUG [Arg A SS t5]	260 nM
AGUCGCAGUGAUGUUGCGAUUCCGUUGAGGGAGGAUAUUGGUAAUACAAGAAGGCCCGGCUGCGGGUGAUGUUCGCAAUAGGGCC [Exclusion FMN A GF19]	112 nM
UACGUUUUAUUAACACUAAAUACAACUGAAGGAGCGACAAUAAAGUCAGGUAGGUCGCAGAAUUAAUGAGUGAUGUUCAUUUUUA [JR_ExcArginiA_Sub015]	92 nM
GCCGUAGAUUGAAGGAGCGGACAGAUACGGGUAUCCAGUGAUGUUGGAAGGUAGCUACUAGUCCAGGUAGGUCGCAAUCUACGGC	286 nM
GGAUAGGACAGAGGAUAUCCAGUGAUGUUGGAGAAUUCUCCUUAAACAUGUCACAAAAGUGGCAUGGGAGAAGGCUGUCCUAUCG [Mod of Eli's FmnBX 29 v1]	138 nM
UCUUUUGUAUAUGAUACCAGCAGUGAGAGACAGGAAGUAUAGUGAUGUUAUAUGAGAGAAUGCCCUUGGCAGCGUGUGCGGUGGG [SSTheophylB.U]	178 nM

Sequence	apparent KD of K4 kissing-loop reporter
CCUUCUCUUGAUAGUGAUGUUAUCAAGGGCAAGGAUAUCAUUUUAAUGAGAAGGUGUCCUUGAUAACAUGGAGGUCUGAAACAGA [Omei KL FMN A Exc C v6]	169 nM
ACACUAUCGUCAUAGACGGUAGUGACAUCUCAGGAUAUAAGUGAUGUUAGAAGGGAGAAAAUCUUAGGUAUCGAAUAGAUACCAA [FmnA 8 #K4BetweenAptamer #OpenEnded]	821 nM
CCCUCACGAGUGAUGUUCGUAGGGUACAGUCAGGAUAUCAUGCGGUUGAGAAGGGACAGAGAGGGCGGCCACGGGUUGCUCAUCU [Tiongequ]	435 nM
GAAAGAAAGUAUGAUACCAGACACCCGAGUGAUGUUCGGAACAGUGUGUUGUUCUUUUAAGUCCCUUGGCAGCAUAAAAGAAAAG [whbob_SS_Theo_B_sa86]	171 nM
UGUACCGAGUCAGGAUAUGGUAUAGCGGAAACGCACCAGUGAUGUUGGACGCGAAAGCGAUAAAAUCCAGAAGGGACUUGGUACU [FmnBS 20 #SwitchBubble #StaticStem #DoubleMagnetSystem]	221 nM
GGAUAGGACAGAGGAUAUGGUAGUGAUGUUACCAAACUGGUUACUCUUGUCAGAAAACUGGCAUCUCUAGAAGGCUGUCCUAUCG [KL-XFMN-B9]	144 nM
ACUGGAAACAUCACGUAUCCAAAACUGGAUACCAGCUCGGAAACGAGCCCUUGGCAGCCAGAACUUGCAGUGAUGUUGCAAGUAA [Design9]	392 nM
UGUACCGAGGCAGGAUAUGUCGUCGAAAGACGAAAUGGAGUGAUGUUCCUUAAACUGCGAAAGCAGACAGAAGGGCCUUGGUACU [FmnBS 29 G10+C76]	202 nM
CACCCUGGACAAGGAUAUAUCAUGCGCCAAGGGCAGUGAUGUUGCCACAGGCUUGGGUCCAGUUCGAUAGAAGGUGUCUGGUAUU [theeternabot_sameState_KL_FMN_B_4]	159 nM
GGCACGGGCUCGGCCGCCACUCCCGCGGGUCGUAAGGUCCGCUACUGAGUGAUGUUCGGUUGGAGGAGGACCGGGAGCCCGUGCC [#2 Exclusion - Tryptophan B Attempt #20 (HarryS)]	145 nM
GCCAGAGCGCGAAGGAGCGCCGUGACAGGUUGCUGCCGUGGGCAGUGAUGUUGCUCAGUCUGGCAGGUAGGUCGCGUGCUCUGGC	228 nM
GGGAUGUAGUGAUGUUAUAUUGGAUGUAGACGAGGACCGGUACGGCCGCCACUCGUGAUGGCUGCUAGCACGUUUCGAUGUUUGC [ExTryptoA.Cs]	433 nM
UUAGAGAUCUCAGGAUAUCAGUGAUGUUGUGAUCCAGAUCUGAGAUAGAAUUCUAUCUCAGAUCAAUGAGAAGGGAGAUCUCAUU [AK4.3 Exc FMN B]	878 nM
UAAUUUAUAACUUUUAUAUAAUAAUCAGAUACCAGUGAUUAAUGUCACCCUUGGCAGCUGUAUAGAGUGAUGUUCUAAUGCUUAA [JR_SSTheophyA_Sub023]	223 nM
GCACGAGUGAUGUUCGUUGGCAUGCAUUCCGAGGAUAUGGGAUUAGCCAGAAGGCGGAAUCGGUCUUCGAGUGAUGUUCGAAGAU [Same State FMN A GF 13]	87.2 nM
ACCAUCAAAGAUGGCCAGGACUCCGCUGAUACCAGAGUGAAAACACUCCCUUGGCAGCAGGUGAGUGAUGUUCACAAGUCCUGGA [Omel KL Theo A SS B v5]	981 nM
